Assay results reported in article doi:10.1101/2022.10.27.514035, “Membrane curvature-generating proteins crucial for autophagosome formation” (bioRxiv, 2022).

Target: T1, S. cerevisiae Atg40, SBP-tagged (S. cerevisiae, UniProt Q99325 1-256)
T1 construct: Atg40, ERphagy receptor of Saccharomyces cerevisiae; 'SBP-tagged full-length sjRop1, scAtg40': full-length is read as holding for both; also called scAtg40; not shown: SBP, C-terminal, kept
T1 sequence (looked up): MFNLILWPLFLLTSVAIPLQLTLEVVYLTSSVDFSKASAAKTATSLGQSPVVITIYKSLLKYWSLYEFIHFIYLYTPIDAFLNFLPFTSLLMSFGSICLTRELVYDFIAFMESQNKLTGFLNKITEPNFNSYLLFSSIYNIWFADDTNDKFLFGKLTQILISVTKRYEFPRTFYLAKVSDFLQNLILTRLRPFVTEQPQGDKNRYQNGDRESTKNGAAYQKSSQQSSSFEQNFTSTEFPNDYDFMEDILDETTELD
Experiment: pull-down; SBP-tagged protein held on streptavidin beads, incubated with purified Atg8 for 1 h at 4 °C in 25 mM HEPES/KOH pH 7.4, 150 mM NaCl, 0.05% DDM; eluate on SDS-PAGE, Coomassie blue
Settings: both partners purified

B1: S. cerevisiae Atg8, His10-tagged (natural protein, UniProt P38182 1-117, looked up)
chain: MKSTFKSEYPFEKRKAESERIADRFKNRIPVICEKAEKSDIPEIDKRKYLVPADLTVGQFVYVIRKRIMLPPEKAIFIFVNDTLPPTAALMSAIYQEHKDKDGFLYVTYSGENTFGR
notes: Atg8, ubiquitin-like autophagy protein of Saccharomyces cerevisiae; also called scAtg8; source: E. coli, purified (Ni-NTA, SEC on Superdex 75)
- binding result: binds
